Assay results taken from the Immune Epitope Database (IEDB).

biological target: HLA-A*01:01; assay: IEDB peptide-MHC binding, purified MHC/competitive/radioactivity; ≥ and ≤ were set here for values at or beyond the usual limits of such assays; settings: source organism: Homo sapiens

IC50 [nM]	Sequence
30300	GSHLVEALY

biological target: HLA-A*02:01; assay: as above; settings: source organism: Homo sapiens

Sequence	IC50 [nM]
RLLYPDYQI	124
RMMEYGTTMV	709
ILAVDGVLSV	2.2
RLLPLWAALPL	5.4
HIAGSLAVV	216
GVFIQVYEV	460
SLEEEIRFL	472
SLASLLPHV	9.1
LMFWSPSHSCA	143
WLLPLWAAL	4.2
ALGDLFQSI	76
FMTSSWWRAPL	84
FLFAVGFYL	1.1
HLASEKVYAI	4060
LLDVAPLSL	51
ALTAVAEEV	1310
MVWESGCTV	126
FLLSLFSLWL	16
STVASRLGPV	25100
FLIVLSVAL	26
ILKDFSILL	39
ALWGPDPAAA	1010

Sequence	IC50 [nM]
VVTGVLVYL	9
SISVLISAL	1560
ILDKKVEKV	11200
SLYHVYEVNL	209
FLWSVFMLI	26
LLSLFSLWL	152
TIADFWQMV	4690
AVAANIVLTV	575
TVASRLGPV	7700
LVEALYLVC	11800
VLHELFGMDI	287
NLLGRFELI	764
LASEKVYAI	6930
KVLHELFGMDI	11
HLCGSHLVEA	7540
NLAQDLATV	67
VMNILLQYVV	2310
TLSSRVCCRT	2780
KLQVFLIVL	1370
LLSILCIWV	734
ELAEYLYNI	637
VAANIVLTV	320

Other lines, results leading:

IC50 [nM]	Sequence
57	YLLLRVLNI
4260	HLSYHRLLPL
7840	LLHVHHSCPL
17200	VLVEGSTRI
2120	VIVMLTPLV
1230	RLQREWHTL
5420	LIFDLGGGT
3090	LLQVHHSCPL
581	RLGPVARTRV
675	ILVLASTITI
29	ALARGAGTVPL
880	KMYAFTLES
51	SLFEGVDFYT
1150	SMCRFSPLTL
631	SMPQGTFPV
8230	RLRPLCCTA
2020	VMNILLQYV
9510	YIPSCTVVGM
478	ILMHCQTTL
8.1	LLIDLTSFL
3.2	WLLPLWAALPL

IC50 [nM]	Sequence
237	SLTTISTTL
10	LLLLDVAPL
70	FLQDVMNIL
9230	STVASWLGPV
7020	FIQVYEVERA
55	FLWSVFWLI
1140	VLNSVASLL
684	LNIDLLWSV
1760	SVASLLPHV
444	LLPPLLEHL
1.8	NLLGRFELIGI
2150	SHLVEALYLV
101	SLSPLQAEL
242	SLTAISTTL
35	LLQEYNWEL
97	KLANIQCLCL
104	TMHSLTIQM
7370	LMGDKSENV
233	LLGRFELIGI
5.8	GLLQVHHSCPL
9040	IQATVMIIV

biological target: HLA-A*03:01; assay: as above; settings: source organism: Homo sapiens

IC50 [nM]	Sequence
2790	ALYLVCGER
27400	LVCGERGFFY

biological target: HLA-A*11:01; assay: as above; settings: source organism: Homo sapiens

IC50 [nM]	Sequence
28300	ALYLVCGER
18300	RFKMFPEVK
27200	LVCGERGFFY

biological target: HLA-A*24:02; assay: as above; settings: source organism: Homo sapiens

Sequence	IC50 [nM]
ALWMRLLPLL	6180
RLLPLLALL	10200

Continued, values first:

IC50 [nM]	Sequence
5260	LYLVCGERGF
545	LWMRLLPLL
15100	ALWGPDPAAAF

biological target: HLA-B*07:02; assay: as above; settings: source organism: Homo sapiens

Sequence	IC50 [nM]
LPLLALLAL	610
APVIKARMM	18300
WMRLLPLLAL	2360

Continued, values first:

IC50 [nM]	Sequence
3860	IPSDLERRIL
1250	HPRYFNQLST

biological target: HLA-B*08:01; assay: as above; settings: source organism: Homo sapiens

IC50 [nM]	Sequence
107	ALWMRLLPL
33	ALWMRLLPLL
1380	GERGFFYT
13000	FYTPKTRRE

biological target: HLA-B*18:01; assay: as above; settings: source organism: Homo sapiens

IC50 [nM]	Sequence
626	VCGERGFFYT

biological target: HLA-B*35:01; assay: as above; settings: source organism: Homo sapiens

IC50 [nM]	Sequence
12300	LPLLALLAL

biological target: HLA-B*51:01; assay: as above; settings: source organism: Homo sapiens

IC50 [nM]	Sequence
1160	LPLLALLAL
